Molecular target: T1, ND2.3-GST (Homo sapiens, UniProt P03891)
T1 construct: amino acids 1-188 (ND2.3-GST); made in house; host or cells: bacteria
Test: dot blot of biotinylated Src peptides on ND2.3-GST
Assay type: binding
Settings: biotinylated peptide
Description: Src, Fyn, and ND2 recombinant proteins were prepared. The cDNAs encoding the SH3 and SH2 domains of mouse n-Src and Fyn were PCR subcloned, ligated in frame into pGEX4T-1 (Amersham Pharmacia Biotech, Baie d'Urfé, Québec), and sequenced. These plasmids, as well as plasmids encoding the unique domains of Src and Fyn in pGEX2T'6, were transformed into BL21 bacteria, and GST fusion proteins were purified by glutathione affinity chromatography. To create the ND2.1, ND2.2, and ND2.3 GST fusion proteins, cDNAs encoding amino acids 239-321 (ND2.1-GST; SEQ ID NO:7), amino acids 189-238 (ND2.2-GST; SEQ ID NO:11), and amino acids 1-188 (ND2.3-GST; SEQ ID NO:13) of human ND2 were PCR subcloned and ligated into pGEX4T-1 (the nucleotide sequence encoding ND2 is SEQ ID NO:8 and the amino acid sequence is SEQ ID NO:9; the nucleotide sequences encoding ND2.1; ND2.2 and ND2.3 are SEQ ID NOS:6, 10 and 12, respectively). Using PCR-based single nucleotide mutagenesis, all cDNAs encoding ND2 fusion proteins were corrected for differences between mitochondrial and nuclear codons to prevent premature translation termination and protein truncation. […]
Src40-58 and scrambled Src peptides were biotinylated by incubating with Sulfo-NHS-Biotin (Pierce Chemical Co., Rockford, Ill.) for 30 minutes at room temperature (SEQ ID NO:4, Src protein). […] Bound probe was then detected on film using an ECL kit.

T1 sequence (P03891 1-188): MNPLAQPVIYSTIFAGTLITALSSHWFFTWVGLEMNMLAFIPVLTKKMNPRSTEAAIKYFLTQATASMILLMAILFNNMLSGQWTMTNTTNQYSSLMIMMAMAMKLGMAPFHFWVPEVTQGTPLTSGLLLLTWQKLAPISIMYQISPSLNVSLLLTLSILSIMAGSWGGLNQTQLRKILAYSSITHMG

## Src40-58: peptide comprising amino acid residues 40-58 of SEQ ID NO:4 (Src) (PASADGHRGPSAAFAPAAA; listed as Homo sapiens)
  binding to ND2.3-GST: Neither Src40-58 nor scrambled Src40-58 bound
